# Source: patent US8008542B2, “Compositions, cells, and plants that include BKI1, a negative regulator of BRI1-mediated BR signaling” (The Salk Institute for Biological Studies, priority 2007, dated 2011)
# How the values were obtained:
# Arabidopsis seedlings = test: Hypocotyl length and growth phenotype of transgenic lines; type: in vivo; conditions: over-expression from 35S promoter in Col-0
# Description: BKI1's function in brassinosteroid signaling was explored in several ways. First, we made transgenic plants harboring a β-glucuronidase (GUS) reporter gene expressed from the promoter of BKI1 to observe the expression pattern of BKI1 (FIG. 1G-J) during development. […] To explore the function of BKI1 in BRI1 signaling, we created RNAi (RNA interference) lines to knockdown BKI1 RNA levels.
# Seedlings were grown in short day photoperiods for seven days. At least ten short-day grown seedlings were measured. In FIGS. 2A-B the pBKI1::GUS line was used as a control (control). RNAi-2 and RNAi-7 were two independent RNAi knockdown lines for BKI1. In FIG. 2 C-E, phenotype of plants overexpressing BKI1-FLAG, with Col-0 (left) and a BKI1-FLAG line (right) are shown. 2C. Short-day grown seedlings. 2D. Long-day grown seedlings. 2E. Long-day grown adult plants. In FIG. 2F, leaf morphology of seedlings grown in short days. Col-0 (right) and a BKI1-FLAG line (left) are shown. In FIG. 2G, over-expression of BKI1-YFP leads to a reduced response (hypocotyl length) to BL. At least twenty short-day grown seedlings were measured. In FIG. 2H, over-expression of BKI1-YFP leads to an enhanced response to BRZ220. At least twenty dark-grown seedlings were measured. In FIG. 2I, over-expression of BKI1-YFP results in reduced accumulation of dephosphorylated BES1. […]
# TTL = target: T1, TTL (Arabidopsis thaliana, UniProt Q9LVM5); test: Yeast two-hybrid interaction with TTL; type: binding
# T1 construct: full length TTL, and full-length BIN2 were cloned into the pDBLeu vector; expressed in transfected cells; host or cells: yeast strain MaV203
# T1 sequence (Q9LVM5 1-324): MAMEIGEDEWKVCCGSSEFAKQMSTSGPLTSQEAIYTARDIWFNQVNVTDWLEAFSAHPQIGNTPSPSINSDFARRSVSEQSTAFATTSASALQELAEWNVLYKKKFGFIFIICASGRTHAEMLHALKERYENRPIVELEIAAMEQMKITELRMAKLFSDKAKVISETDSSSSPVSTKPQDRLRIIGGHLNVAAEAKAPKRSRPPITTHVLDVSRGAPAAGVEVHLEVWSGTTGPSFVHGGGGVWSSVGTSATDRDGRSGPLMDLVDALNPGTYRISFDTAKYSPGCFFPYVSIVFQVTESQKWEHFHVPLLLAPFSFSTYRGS
# Description: (§1) A ProQuest Two-Hybrid system with Gateway technology (Invitrogen) was used. […] The full-length (BKI1-FL), and various truncated proteins, 1-252 (BKI1-ΔCT1), 1-299 (BKI1-ΔCT2), and 253-337 (BKI1-CT) of BKI1 were cloned into the pEXPAD502 vector. The kinase domain of NIK1 (NIK1-KD) (Fontes et al. (2004) Genes Dev. 18:2545), BAK1 (BAK1-KD), CLV1 (CLV1-KD), BRL1 (BRL1-KD), BRL3 (BRL3-KD), full length TTL, and full-length BIN2 were cloned into the pDBLeu vector. Interactions were tested on SD medium minus Leu, Trp, and His, and containing 25 mM 3-Amino-1,2,4-Triazole (3AT), using the yeast strain MaV203 according to the manufacturer's manual.
# BAK1 = target: T2, BAK1 (Arabidopsis thaliana, UniProt Q94F62); test: Yeast two-hybrid interaction with BAK1-KD; type: binding
# T2 construct: kinase domains of other receptor-like kinases tested, including BAK1 and NIK1; expressed in transfected cells; host or cells: yeast strain MaV203
# T2 sequence (Q94F62 289-576 limits assumed): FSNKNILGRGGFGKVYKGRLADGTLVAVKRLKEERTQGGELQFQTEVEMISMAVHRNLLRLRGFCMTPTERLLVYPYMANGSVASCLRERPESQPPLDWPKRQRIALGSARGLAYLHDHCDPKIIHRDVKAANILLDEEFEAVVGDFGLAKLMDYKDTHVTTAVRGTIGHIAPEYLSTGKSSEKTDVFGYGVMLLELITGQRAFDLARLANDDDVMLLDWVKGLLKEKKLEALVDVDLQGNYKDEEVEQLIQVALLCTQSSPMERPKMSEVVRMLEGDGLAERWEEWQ
# Description: as §1
# NIK1 = target: T3, NIK1 (Arabidopsis thaliana, UniProt Q9LFS4); test: Yeast two-hybrid interaction with NIK1-KD; type: binding
# T3 construct: The kinase domain of NIK1 (NIK1-KD) (Fontes et al. (2004) Genes Dev. 18:2545); expressed in transfected cells; host or cells: yeast strain MaV203
# T3 sequence (Q9LFS4 312-593 limits assumed): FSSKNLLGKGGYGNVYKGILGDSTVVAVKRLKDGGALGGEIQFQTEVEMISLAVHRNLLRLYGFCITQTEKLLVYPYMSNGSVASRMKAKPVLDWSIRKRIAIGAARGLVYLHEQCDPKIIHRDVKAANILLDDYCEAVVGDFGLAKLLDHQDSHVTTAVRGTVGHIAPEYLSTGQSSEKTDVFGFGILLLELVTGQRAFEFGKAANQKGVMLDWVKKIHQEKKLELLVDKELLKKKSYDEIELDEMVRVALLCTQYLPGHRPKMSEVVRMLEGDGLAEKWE
# Description: as §1
# BRL1 = target: T4, BRL1 (Arabidopsis thaliana, UniProt Q9ZWC8); test: Yeast two-hybrid interaction with BRL1-KD; type: binding
# T4 construct: expressed in transfected cells; host or cells: yeast strain MaV203
# T4 sequence (Q9ZWC8 859-1147 limits assumed): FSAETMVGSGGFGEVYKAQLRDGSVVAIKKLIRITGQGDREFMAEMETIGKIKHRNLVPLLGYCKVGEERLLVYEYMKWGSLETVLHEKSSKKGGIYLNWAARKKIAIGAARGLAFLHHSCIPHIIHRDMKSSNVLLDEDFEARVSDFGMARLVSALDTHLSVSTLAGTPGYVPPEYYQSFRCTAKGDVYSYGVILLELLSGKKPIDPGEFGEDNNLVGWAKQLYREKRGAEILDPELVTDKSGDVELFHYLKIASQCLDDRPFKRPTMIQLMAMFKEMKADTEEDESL
# Description: BKI1 fused with GAL4-AD (BKI1-pEXAD502) interacts with the intracellular domain of BRI1 (BRI1-KD), but not CLV1 (CLV1-KD), BRL1 (BRL1-KD), and BRL3 (BRL3-KD), fused with GAL4-DB (in pDBLeu) in yeast. pDBLeu was used as a negative control. Each spot from left to right contains 10 μl yeast cell culture with OD600=0.2, 0.04, 0.008, and 0.0016.
molecule,measurement,setting,value
"BKI1: BRI1-interacting protein of 337 amino acids, negative regulator of brassinosteroid signaling (SEQ ID NO:1) (protein, listed as Arabidopsis thaliana) METNLQQVKNSSQTFSEKQNPKQEASPSPISSTCSSPSHDFSFTISLQPLSSSSKHISPTLRSPSKTTSSYQQTDPFAVDLSPADEIFFHGHLLPLHLLSHLPVSPRTSTGSYNDGFTLPVKDILPDQPTNNNNNTENAITNISTEAKDDNTEDKAEGEIRVKTKPIKSFSLFGLSKWRKGFESNEREQEQQQQKIKKPMSLDLSHAVKKYIRMLFQKRGNGTQFWNRRQTSSYSFSSSLMGPNGNSKTMINGSYNKRDLIRGRRGELFSAPASMRTSPTNSGHLRVSTAGLSSSSGSTSSSSSDSTMEELQAAIQAAIAHCKNSSAVDRDDKVKDS",plant phenotype on over-expression,Arabidopsis seedlings,dwarf plants
same,interaction with TTL in yeast,TTL,not
same,interaction with kinase domain of BAK1 in yeast,BAK1,not
same,interaction with kinase domain of NIK1 in yeast,NIK1,not
same,interaction with kinase domain of BRL1 in yeast,BRL1,does not interact
